# Changes are numbered by the printed parent chain. Names and notes keep the numbering of the source.
# B1: TaHPPD2-02: native HPPD of Triticum aestivum ecotype 2, UniProt Q45FE8, SEQ ID NO: 183 (protein, listed as Triticum aestivum)
# chain: MPPTPTTPAATGAGAAAAVTPEHARPRRMVRFNPRSDRFHTLSFHHVEFWCADAASAAGRFAFALGAPLAARSDLSTGNSVHASQLLRSGNLAFLFTAPYANGCDAATASLPSFSADAARRFSADHGLAVRSIALRVADAAEAFRASVDGGARPAFSPVDLGRGFGFAEVELYGDVVLRFVSHPDDTDVPFLPGFEGVSNPDAVDYGLTRFDHVVGNVPELAPAAAYVAGFAGFHEFAEFTTEDVGTAESGLNSMVLANNSEGVLLPLNEPVHGTKRRSQIQTFLEHHGGSGVQHIAVASSDVLRTLREMRARSAMGGFDFLPPRCRKYYEGVRRIAGDVLSEAQIKECQELGVLVDRDDQGVLLQIFTKPVGDRPTLFLEMIQRIGCMEKDERGEEYQKGGCGGFGKGNFSELFKSIEDYEKSLEAKQSAAVQGS
# modifications: TaHPPD2 Amino Acid Sequence
# B2: TaHPPD3-02: native HPPD of Triticum aestivum ecotype 3, UniProt A0A3B6PKV0, SEQ ID NO: 189 (protein, listed as Triticum aestivum)
# chain: B1 chain with G14A, S43A, S291P, R325P, C326L, R327P, G435A
# modifications: TaHPPD3 Amino Acid Sequence
# B3: TaHPPD2m-F372A-02: Triticum aestivum ecotype 2 HPPD mutant F372A, SEQ ID NO: 186 (protein)
# chain: B1 chain with F368A
# modifications: TaHPPD2m-F372A Amino Acid Sequence
# B4: TaHPPD3m-F372A-02: Triticum aestivum ecotype 3 HPPD mutant F372A, SEQ ID NO: 192 (protein)
# chain: B1 chain with G14A, S43A, S291P, R325P, C326L, R327P, F368A, G435A
# modifications: TaHPPD3m-F372A Amino Acid Sequence
# B5: TaHPPD5-02: native HPPD of Triticum aestivum ecotype 5, UniProt A0A3B6NNK0, SEQ ID NO: 201 (protein, listed as Triticum aestivum)
# chain: MPPTPTTPAATGAAAVTPEHARPRRMVRFNPRSDRFHTLAFHHVEFWCADAASAAGRFAFALGAPLAARSDLSTGNSVHASQLLRSGNLAFLFTAPYANGCDAATASLPSFSADAARQFSADHGLAVRSIALRVADAAEAFRASVDGGARPAFSPVDLGRGFGFAEVELYGDVVLRFVSHPDGRDVPFLPGFEGVSNPDAVDYGLTRFDHVVGNVPELAPAAAYVAGFTGFHEFAEFTTEDVGTAESGLNSMVLANNSEGVLLPLNEPVHGTKRRSQIQTFLEHHGGSGVQHIAVASSDVLRTLREMRARSAMGGFDFLPPPLPKYYEGVRRIAGDVLSEAQIKECQELGVLVDRDDQGVLLQIFTKPVGDRPTLFLEMIQRIGCMEKDELFKSIEDYEKSLEAKQSAAVQGS
# modifications: TaHPPD5 Amino Acid Sequence
# B6: TaHPPD5m-F372A-02: Triticum aestivum ecotype 5 HPPD mutant F372A, SEQ ID NO: 204 (protein)
# chain: B5 chain with F365A
# modifications: TaHPPD5m-F372A Amino Acid Sequence
# B7: TaHPPD4-02: native HPPD of Triticum aestivum ecotype 4, UniProt A0A3B6NLC6, SEQ ID NO: 195 (protein, listed as Triticum aestivum)
# chain: MPPTPTTPAATGAAAVTPEHARPRRMVRFNPRSDRFHTLAFHHVEFWCADAASAAGRFAFALGAPLAARSDLSTGNSVHASQLLRSGNLAFLFTAPYANGCDAATASLPSFSADAARQFSADHGLAVRSIALRVADAAEAFRASVDGGARPAFSPVDLGRGFGFAEVELYGDVVLRFVSHPDGRDVPFLPGFEGVSNPDAVDYGLTRFDHVVGNVPELAPAAAYVAGFTGFHEFAEFTTEDVGTAESGLNSMVLANNSEGVLLPLNEPVHGTKRRSQIQTFLEHHGGSGVQHIAVASSDVLRTLREMRARSAMGGFDFLPPPLPKYYEGVRRIAGDVLSEAQIKECQELGVLVDRDDQGVLLQIFTKPVGDRPTLFLEMIQRIGCMEKDERGEEYQKGGCGGFGKGNFSELFKSIEDYEKSLEAKQSAAVQGS
# modifications: TaHPPD4 Amino Acid Sequence
# B8: TaHPPD4m-F372A-02: Triticum aestivum ecotype 4 HPPD mutant F372A, SEQ ID NO: 198 (protein)
# chain: B7 chain with F365A
# modifications: TaHPPD4m-F372A Amino Acid Sequence
# Test system: Arabidopsis thaliana T1 plants
# Test: Topramezone tolerance of transgenic Arabidopsis thaliana T1 plants (pesticide damage grade by bleached leaf area, score, resistance evaluation)
# Format: in vivo
# Conditions: HPPDs from ecotypes of Triticum aestivum; for Classification and statistics of pesticide damage grade: Grade 0 / Classification and statistics of pesticide damage grade: Grade 1 / Classification and statistics of pesticide damage grade: Grade 2 / Classification and statistics of pesticide damage grade: Grade 3: number of plants
# How it was run: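 Herbicide tolerance was judged per plant on a bleaching scale (grade 0 no bleaching to grade 3 fully bleached) 7 DAT. Topramezone doses were 0, 25, 50 and 100 g ai/ha on 18-day-old T1 and wild-type plants.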
Molecule,Resistance evaluation (topramezone 25 g ai/ha (1x)),Scores (topramezone 25 g ai/ha (1x)),Classification and statistics of pesticide damage grade: Grade 0 (topramezone 25 g ai/ha (1x)),Classification and statistics of pesticide damage grade: Grade 1 (topramezone 25 g ai/ha (1x)),Classification and statistics of pesticide damage grade: Grade 2 (topramezone 25 g ai/ha (1x)),Classification and statistics of pesticide damage grade: Grade 3 (topramezone 25 g ai/ha (1x)),Resistance evaluation (topramezone 100 g ai/ha (4x)),Scores (topramezone 100 g ai/ha (4x)),Classification and statistics of pesticide damage grade: Grade 0 (topramezone 100 g ai/ha (4x)),Classification and statistics of pesticide damage grade: Grade 1 (topramezone 100 g ai/ha (4x)),Classification and statistics of pesticide damage grade: Grade 2 (topramezone 100 g ai/ha (4x)),Classification and statistics of pesticide damage grade: Grade 3 (topramezone 100 g ai/ha (4x))
B1,non-resistant (non-resistant plants (scores 68-100)),100,0,0,0,16,non-resistant (non-resistant plants (scores 68-100)),100,0,0,0,16
B2,non-resistant (non-resistant plants (scores 68-100)),100,0,0,0,16,non-resistant (non-resistant plants (scores 68-100)),100,0,0,0,16
B3,highly resistant (highly resistant plants (scores 0-15)),0,16,0,0,0,moderately resistant (moderately resistant plants (scores 16-33)),17,8,8,0,0
B4,highly resistant (highly resistant plants (scores 0-15)),0,16,0,0,0,highly resistant (highly resistant plants (scores 0-15)),8,12,4,0,0
B5,non-resistant (non-resistant plants (scores 68-100)),83,0,0,8,8,non-resistant (non-resistant plants (scores 68-100)),96,0,0,2,14
B6,highly resistant (highly resistant plants (scores 0-15)),0,16,0,0,0,moderately resistant (moderately resistant plants (scores 16-33)),23,6,9,1,0
B7,non-resistant (non-resistant plants (scores 68-100)),92,0,0,4,12,non-resistant (non-resistant plants (scores 68-100)),100,0,0,0,16
B8,highly resistant (highly resistant plants (scores 0-15)),0,16,0,0,0,highly resistant (highly resistant plants (scores 0-15)),10,11,5,0,0

# Reference: patent publication US20230212587A1, “Mutant Hydroxyphenylpyruvate Dioxygenase Polypeptide, Encoding Gene Thereof and Use Therefor” (Beijing Dabeinong Biotechnology Co., Ltd., priority 2019, published 2023)
